From patent US20240376151A1, “STAPLED PEPTIDES AND METHODS THEREOF” (FOG PHARMACEUTICALS, INC., priority 2022, published 2024)

Tests used:
RNF31 UBA domain = target: T1, RNF31 UBA domain (Homo sapiens, UniProt Q96EP0); assay: Phage Library Screening with NGS, RNF31 UBA domain; assay type: binding; conditions: for phage screen NGS read-out at Target Concentration 10 / phage screen NGS read-out at Target Concentration 30 / phage screen NGS read-out at Target Concentration 100 / phage screen NGS read-out at Target Concentration 300: no competitor; for Phage library screen NGS readout, Target Concentration 10 / Phage library screen NGS readout, Target Concentration 30 / Phage library screen NGS readout, Target Concentration 100 / Phage library screen NGS readout, Target Concentration 300 / Phage library screen NGS readout, Target Concentration 1000: RNF31 UBA domain cluster C46; for Phage library screen NGS readout, BLANK: cluster C46
T1 construct: RNF31 UBA domain protein (residues 480-639) with N-terminal Thioredoxin-TEV-6×his-yBBr-3C tags; Thioredoxin (N, cleaved yes); made in house; host or cells: E. coli BL21 (DE3) pLysS
T1 sequence (Q96EP0 480-639): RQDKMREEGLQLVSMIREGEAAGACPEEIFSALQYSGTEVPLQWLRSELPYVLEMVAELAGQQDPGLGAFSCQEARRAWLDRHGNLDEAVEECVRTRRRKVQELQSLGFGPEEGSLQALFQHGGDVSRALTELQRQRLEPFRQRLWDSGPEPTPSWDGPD

beta-catenin = target: T2, beta-catenin (Homo sapiens, UniProt P35222); assay: Phage Library Screening with NGS, beta-catenin; assay type: binding; conditions: for Target Concentration 10 (phage screen NGS readout): beta-catenin target concentration 10; for Target Concentration 10 (phage screen NGS readout) / Target Concentration 30 (phage screen NGS readout) / Target Concentration 100 (phage screen NGS readout) / Target Concentration 300 (phage screen NGS readout): no competitor; for Target Concentration 30 (phage screen NGS readout): beta-catenin target concentration 30; for Target Concentration 100 (phage screen NGS readout): beta-catenin target concentration 100; for Target Concentration 300 (phage screen NGS readout): beta-catenin target concentration 300; for Target Concentration 1000 (phage screen NGS readout): beta-catenin target concentration 1000
T2 construct: made in house; host or cells: E. coli BL21 (DE3) pLysS
T2 sequence (P35222 134-665): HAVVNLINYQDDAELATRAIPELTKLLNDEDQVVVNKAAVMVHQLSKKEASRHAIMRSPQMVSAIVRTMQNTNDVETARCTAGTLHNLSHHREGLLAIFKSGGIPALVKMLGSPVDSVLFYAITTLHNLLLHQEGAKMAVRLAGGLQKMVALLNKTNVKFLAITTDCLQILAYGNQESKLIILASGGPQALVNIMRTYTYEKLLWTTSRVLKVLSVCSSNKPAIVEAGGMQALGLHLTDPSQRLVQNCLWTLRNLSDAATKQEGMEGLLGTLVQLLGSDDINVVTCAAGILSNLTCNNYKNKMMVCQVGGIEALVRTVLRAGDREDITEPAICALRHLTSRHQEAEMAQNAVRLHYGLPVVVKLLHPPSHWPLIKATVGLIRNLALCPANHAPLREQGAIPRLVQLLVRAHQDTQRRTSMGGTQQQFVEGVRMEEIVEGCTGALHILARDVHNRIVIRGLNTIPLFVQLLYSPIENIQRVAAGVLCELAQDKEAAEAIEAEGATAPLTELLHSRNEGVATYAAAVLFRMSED

[1] = target concentration 1000, first column
[2] = target concentration 1000, second column

Sequence	phage screen NGS read-out at Target Concentration 10 (RNF31 UBA domain)	phage screen NGS read-out at Target Concentration 30 (RNF31 UBA domain)	phage screen NGS read-out at Target Concentration 100 (RNF31 UBA domain)	phage screen NGS read-out at Target Concentration 300 (RNF31 UBA domain)	Target Concentration BLANK (phage screen NGS readout) (beta-catenin; first column)	Target Concentration BLANK (phage screen NGS readout) (beta-catenin; fourth column)	Target Concentration BLANK (phage screen NGS readout) (beta-catenin; second column)	Target Concentration BLANK (phage screen NGS readout) (beta-catenin; third column)	Target Concentration 10 (phage screen NGS readout) (beta-catenin)	Target Concentration 30 (phage screen NGS readout) (beta-catenin)	Target Concentration 100 (phage screen NGS readout) (beta-catenin)	Target Concentration 300 (phage screen NGS readout) (beta-catenin)	Target Concentration 1000 (phage screen NGS readout) (beta-catenin; first 1000 column)	Target Concentration 1000 (phage screen NGS readout) (beta-catenin; second 1000 column)	further results
DPAALACLSAAVYCEMY															Phage library screen NGS readout, Target Concentration 10 (RNF31 UBA domain): 6; Phage library screen NGS readout, Target Concentration 30 (RNF31 UBA domain): 49; Phage library screen NGS readout, Target Concentration 100 (RNF31 UBA domain): 132; Phage library screen NGS readout, Target Concentration 300 (RNF31 UBA domain): 200; Phage library screen NGS readout, Target Concentration 1000 (RNF31 UBA domain; [1]): 199; Phage library screen NGS readout, Target Concentration 1000 (RNF31 UBA domain; [2]): 246; Phage library screen NGS readout, BLANK (RNF31 UBA domain; column 1 of 5): 0; Phage library screen NGS readout, BLANK (RNF31 UBA domain; column 2 of 5): 1; Phage library screen NGS readout, BLANK (RNF31 UBA domain; column 3 of 5): 2; Phage library screen NGS readout, BLANK (RNF31 UBA domain; column 4 of 5): 0; Phage library screen NGS readout, BLANK (RNF31 UBA domain; column 5 of 5): 1
DPAAQACLSAAVFCAWY															Phage library screen NGS readout, Target Concentration 10 (RNF31 UBA domain): 5; Phage library screen NGS readout, Target Concentration 30 (RNF31 UBA domain): 19; Phage library screen NGS readout, Target Concentration 100 (RNF31 UBA domain): 45; Phage library screen NGS readout, Target Concentration 300 (RNF31 UBA domain): 86; Phage library screen NGS readout, Target Concentration 1000 (RNF31 UBA domain; [1]): 88; Phage library screen NGS readout, Target Concentration 1000 (RNF31 UBA domain; [2]): 97; Phage library screen NGS readout, BLANK (RNF31 UBA domain; column 1 of 5): 0; Phage library screen NGS readout, BLANK (RNF31 UBA domain; column 2 of 5): 0; Phage library screen NGS readout, BLANK (RNF31 UBA domain; column 3 of 5): 0; Phage library screen NGS readout, BLANK (RNF31 UBA domain; column 4 of 5): 0; Phage library screen NGS readout, BLANK (RNF31 UBA domain; column 5 of 5): 0
DPAASQCFSAAVYCAWI															Phage library screen NGS readout, Target Concentration 10 (RNF31 UBA domain): 0; Phage library screen NGS readout, Target Concentration 30 (RNF31 UBA domain): 0; Phage library screen NGS readout, Target Concentration 100 (RNF31 UBA domain): 8; Phage library screen NGS readout, Target Concentration 300 (RNF31 UBA domain): 13; Phage library screen NGS readout, Target Concentration 1000 (RNF31 UBA domain; [1]): 16; Phage library screen NGS readout, Target Concentration 1000 (RNF31 UBA domain; [2]): 13; Phage library screen NGS readout, BLANK (RNF31 UBA domain; column 1 of 5): 0; Phage library screen NGS readout, BLANK (RNF31 UBA domain; column 2 of 5): 0; Phage library screen NGS readout, BLANK (RNF31 UBA domain; column 3 of 5): 0; Phage library screen NGS readout, BLANK (RNF31 UBA domain; column 4 of 5): 1; Phage library screen NGS readout, BLANK (RNF31 UBA domain; column 5 of 5): 0
DPAAYLCDMAAHNCLYL	1	0	0	0											
DPADLLCHMAAQNCLYR	1	0	0	0											
DPADWTCVLAAHNCLYT	0	0	0	1											
DPADYICYLAANNCLYH	3	1	4	19											
DPAEQRCLSAAVYCAWH															Phage library screen NGS readout, Target Concentration 10 (RNF31 UBA domain): 1; Phage library screen NGS readout, Target Concentration 30 (RNF31 UBA domain): 3; Phage library screen NGS readout, Target Concentration 100 (RNF31 UBA domain): 16; Phage library screen NGS readout, Target Concentration 300 (RNF31 UBA domain): 18; Phage library screen NGS readout, Target Concentration 1000 (RNF31 UBA domain; [1]): 36; Phage library screen NGS readout, Target Concentration 1000 (RNF31 UBA domain; [2]): 26; Phage library screen NGS readout, BLANK (RNF31 UBA domain; column 1 of 5): 0; Phage library screen NGS readout, BLANK (RNF31 UBA domain; column 2 of 5): 1; Phage library screen NGS readout, BLANK (RNF31 UBA domain; column 3 of 5): 1; Phage library screen NGS readout, BLANK (RNF31 UBA domain; column 4 of 5): 0; Phage library screen NGS readout, BLANK (RNF31 UBA domain; column 5 of 5): 0
DPAVQDCEWAAIYCELI					0	1	1	0	0	9	10	158	104	157	
DPAWILCDWAAMHCELV					0	0	0	0	0	0	2	3	1	18	
DPAWSDCIWAAEHCQLI					0	0	1	0	0	3	5	127	109	85	
DPAWWQCDHAALICIAE					0	0	1	2	28	127	422	637	830	731	
DPAYTYCQWAAEHCSLL					2	2	2	1	5	5	3	88	115	137	
DPAYWVCEHAALLCTDY					3	0	3	1	5	18	85	337	283	227	

Now from value to sequence, other results behind:

phage screen NGS read-out at Target Concentration 10 (RNF31 UBA domain)	phage screen NGS read-out at Target Concentration 30 (RNF31 UBA domain)	phage screen NGS read-out at Target Concentration 100 (RNF31 UBA domain)	phage screen NGS read-out at Target Concentration 300 (RNF31 UBA domain)	Target Concentration BLANK (phage screen NGS readout) (beta-catenin; first column)	Target Concentration BLANK (phage screen NGS readout) (beta-catenin; fourth column)	Target Concentration BLANK (phage screen NGS readout) (beta-catenin; second column)	Target Concentration BLANK (phage screen NGS readout) (beta-catenin; third column)	Target Concentration 10 (phage screen NGS readout) (beta-catenin)	Target Concentration 30 (phage screen NGS readout) (beta-catenin)	Target Concentration 100 (phage screen NGS readout) (beta-catenin)	Target Concentration 300 (phage screen NGS readout) (beta-catenin)	Target Concentration 1000 (phage screen NGS readout) (beta-catenin; first 1000 column)	Target Concentration 1000 (phage screen NGS readout) (beta-catenin; second 1000 column)	Sequence	further results
0	1	0	2											DPAAFVCEMAANDCLYT	
0	0	2	30											DPADLICQLAAANCIYL	
0	1	1	1											DPAEWICEMAAHNCLYM	
				0	0	0	0	0	0	0	0	0	13	DPAVVECYEAAYTCQYI	
				0	0	1	0	0	10	52	194	158	163	DPAWQNCTWAAFHCELL	
				0	0	1	2	3	14	152	42	543	409	DPAYWDCTHAALLCNLD	
